{"source": "FireProtDB (doi:10.1021/bi002752b)", "proteins": {"B1": {"name": "2-hydroxymuconate tautomerase wild type, Q01468 (protein)", "chain": "MPIAQIHILEGRSDEQKETLIREVSEAISRSLDAPLTSVRVIITEMAKGHFGIGGELASKVRR"}}, "details": "Pseudomonas putida, 25 °C, GdnHCl, phosphate 50 mM, reversible: yes, whole UniProt chain shown", "note": "Where “and” joins values, the source holds several entries; their conditions need not be identical. Identical values can stand only once."}
{"protein": "B1", "values": [{"measurement": "denaturant midpoint (higher = more stable)", "setting": "pH 6, CD", "value": "1.9 M and 2.1 M and 2.3 M"}, {"measurement": "denaturant midpoint (higher = more stable)", "setting": "pH 6, activity", "value": "1.4 M and 1.7 M"}, {"measurement": "denaturant midpoint (higher = more stable)", "setting": "pH 7.4, CD", "value": "2.4 M and 2.7 M and 2.9 M"}, {"measurement": "denaturant midpoint (higher = more stable)", "setting": "pH 7.4, activity", "value": "2.2 M and 2.5 M and 2.9 M"}, {"measurement": "denaturant midpoint (higher = more stable)", "setting": "pH 8.5, CD", "value": "2.5 M and 2.8 M and 3 M"}, {"measurement": "denaturant midpoint (higher = more stable)", "setting": "pH 8.5, activity", "value": "2.5 M and 2.7 M and 2.9 M"}]}
